Values belong to the binder of their own block, whether it stands above or below them.
Experiments:
[1] = molecular target: T1, huCDH19(44-249)::muCDH19(248-770), Flag-tagged, on 293T cells (human/mouse chimera); experiment: FACS, transfected 293T
T1 construct: also called Hu EC1-2; C137896
Text: (§1) The experiment included assaying the anti-CDH19 antibodies against mouse Cadherin19 to determine suitability for binning on these human/mouse chimeras.

[2] = molecular target: T2, muCDH19(44-247)::huCDH19(250-364)::muCDH19(363-770), Flag-tagged, on 293T cells (human/mouse chimera); experiment: FACS, transfected 293T
T2 construct: also called Hu EC3; C137911
Text: as §1

[3] = molecular target: T3, muCDH19(44-139)::huCDH19(142-249)::muCDH19(248-770), Flag-tagged, on 293T cells (human/mouse chimera); experiment: FACS, transfected 293T
T3 construct: also called Hu EC2; C137913
T3 chain: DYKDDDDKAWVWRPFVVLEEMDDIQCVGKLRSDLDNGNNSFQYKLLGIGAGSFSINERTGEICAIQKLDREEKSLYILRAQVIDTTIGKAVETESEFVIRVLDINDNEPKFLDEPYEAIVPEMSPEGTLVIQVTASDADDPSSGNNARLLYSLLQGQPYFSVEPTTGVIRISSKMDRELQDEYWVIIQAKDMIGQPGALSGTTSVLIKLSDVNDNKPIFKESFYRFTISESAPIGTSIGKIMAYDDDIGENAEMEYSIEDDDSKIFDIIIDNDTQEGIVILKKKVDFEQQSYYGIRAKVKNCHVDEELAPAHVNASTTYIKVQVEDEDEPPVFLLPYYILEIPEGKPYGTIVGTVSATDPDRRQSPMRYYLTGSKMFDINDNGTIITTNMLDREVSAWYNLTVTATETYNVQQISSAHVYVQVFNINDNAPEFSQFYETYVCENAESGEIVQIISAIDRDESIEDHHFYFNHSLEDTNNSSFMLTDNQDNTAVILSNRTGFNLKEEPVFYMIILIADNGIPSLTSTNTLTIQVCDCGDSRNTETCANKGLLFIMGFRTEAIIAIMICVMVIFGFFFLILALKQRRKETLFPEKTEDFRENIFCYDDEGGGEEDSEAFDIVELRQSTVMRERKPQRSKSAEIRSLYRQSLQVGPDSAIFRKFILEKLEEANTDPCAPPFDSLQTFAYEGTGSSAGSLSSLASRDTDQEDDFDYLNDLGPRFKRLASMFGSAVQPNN
Text: as §1

[4] = molecular target: T4, muCDH19(44-461)::huCDH19(464-772), Flag-tagged, on 293T cells (human/mouse chimera); experiment: FACS, transfected 293T
T4 construct: also called Hu EC5; C137915
T4 chain: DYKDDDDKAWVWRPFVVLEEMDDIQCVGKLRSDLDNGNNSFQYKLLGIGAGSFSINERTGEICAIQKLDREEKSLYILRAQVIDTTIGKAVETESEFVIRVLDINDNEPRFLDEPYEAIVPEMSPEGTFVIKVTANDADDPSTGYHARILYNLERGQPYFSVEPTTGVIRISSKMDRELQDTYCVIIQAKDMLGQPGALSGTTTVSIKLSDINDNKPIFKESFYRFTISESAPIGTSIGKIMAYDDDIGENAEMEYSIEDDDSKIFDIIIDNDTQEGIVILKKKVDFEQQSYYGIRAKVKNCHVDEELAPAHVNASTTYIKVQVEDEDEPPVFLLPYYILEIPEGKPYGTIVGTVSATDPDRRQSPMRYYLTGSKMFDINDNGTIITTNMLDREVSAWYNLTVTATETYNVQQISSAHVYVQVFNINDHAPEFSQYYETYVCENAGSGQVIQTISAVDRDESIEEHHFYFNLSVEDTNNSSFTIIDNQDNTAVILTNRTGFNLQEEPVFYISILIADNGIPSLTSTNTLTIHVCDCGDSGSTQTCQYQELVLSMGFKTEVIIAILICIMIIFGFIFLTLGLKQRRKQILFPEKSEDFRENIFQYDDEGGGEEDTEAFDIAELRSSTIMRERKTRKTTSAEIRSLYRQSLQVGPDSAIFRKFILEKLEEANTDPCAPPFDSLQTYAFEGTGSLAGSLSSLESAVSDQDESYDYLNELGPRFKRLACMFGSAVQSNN
Text: as §1

[5] = molecular target: T5, huCDH19(44-772), Flag-tagged, on 293T cells (human, UniProt Q9H159 44-772); experiment: FACS, transfected 293T
T5 construct: Expressed with native leader (1-43) followed by a Flag tag; leader left out; also called Hu EC1-5
Text: as §1

[6] = molecular target: T6, muCDH19(44-362)::huCDH19(365-772), Flag-tagged, on 293T cells (human/mouse chimera); experiment: FACS, transfected 293T
T6 construct: also called Hu EC4-5; C137917
T6 chain: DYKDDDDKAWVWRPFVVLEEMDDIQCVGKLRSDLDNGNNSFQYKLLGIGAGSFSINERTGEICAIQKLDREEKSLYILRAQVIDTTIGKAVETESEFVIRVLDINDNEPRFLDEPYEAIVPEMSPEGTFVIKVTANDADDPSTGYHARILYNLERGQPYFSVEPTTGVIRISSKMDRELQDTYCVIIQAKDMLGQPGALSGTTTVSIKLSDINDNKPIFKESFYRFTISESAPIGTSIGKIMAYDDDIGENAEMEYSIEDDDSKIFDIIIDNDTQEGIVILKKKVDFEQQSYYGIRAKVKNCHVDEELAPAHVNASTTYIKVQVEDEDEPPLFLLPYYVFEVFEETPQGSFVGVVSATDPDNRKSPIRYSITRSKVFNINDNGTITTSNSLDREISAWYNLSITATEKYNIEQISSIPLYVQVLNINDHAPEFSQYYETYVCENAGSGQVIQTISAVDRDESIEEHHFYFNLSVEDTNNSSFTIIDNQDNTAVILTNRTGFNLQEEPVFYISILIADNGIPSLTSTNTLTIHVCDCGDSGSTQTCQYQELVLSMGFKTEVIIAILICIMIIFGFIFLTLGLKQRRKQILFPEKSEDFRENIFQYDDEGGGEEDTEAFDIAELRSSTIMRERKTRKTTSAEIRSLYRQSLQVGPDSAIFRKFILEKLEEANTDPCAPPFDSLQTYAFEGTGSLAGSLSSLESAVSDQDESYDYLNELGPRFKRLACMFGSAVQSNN
Text: as §1

[7] = molecular target: T7, muCDH19(44-770), Flag-tagged, on 293T cells (mouse); experiment: FACS, transfected 293T
T7 construct: also called Mu EC1-5
T7 chain: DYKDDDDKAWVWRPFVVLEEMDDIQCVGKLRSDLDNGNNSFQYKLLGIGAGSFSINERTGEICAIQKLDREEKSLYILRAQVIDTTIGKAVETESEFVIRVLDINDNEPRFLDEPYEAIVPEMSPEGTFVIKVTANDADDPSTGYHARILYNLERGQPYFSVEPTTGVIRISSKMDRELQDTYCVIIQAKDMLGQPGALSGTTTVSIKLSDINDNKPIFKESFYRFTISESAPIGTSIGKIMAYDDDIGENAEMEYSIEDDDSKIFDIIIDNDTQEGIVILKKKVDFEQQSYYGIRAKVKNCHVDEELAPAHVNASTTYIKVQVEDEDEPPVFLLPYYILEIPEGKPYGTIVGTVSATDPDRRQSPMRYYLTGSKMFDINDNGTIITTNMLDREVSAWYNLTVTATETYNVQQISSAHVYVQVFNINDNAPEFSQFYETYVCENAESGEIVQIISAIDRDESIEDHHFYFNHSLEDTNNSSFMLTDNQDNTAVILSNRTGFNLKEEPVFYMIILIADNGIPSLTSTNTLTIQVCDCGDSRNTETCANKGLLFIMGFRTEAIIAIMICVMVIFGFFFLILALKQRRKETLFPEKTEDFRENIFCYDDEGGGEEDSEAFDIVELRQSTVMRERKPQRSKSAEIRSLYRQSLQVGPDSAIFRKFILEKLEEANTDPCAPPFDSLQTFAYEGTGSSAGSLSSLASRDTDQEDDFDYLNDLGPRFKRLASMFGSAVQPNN
Text: as §1

[8] = molecular target: T8, muCDH19(44-139)::huCDH19(142-364)::muCDH19(363-770), Flag-tagged, on 293T cells (human/mouse chimera); experiment: FACS, transfected 293T
T8 construct: also called Hu EC2-3; C137847
Text: as §1

[9] = molecular target: T9, huCDH19(44-141)::muCDH19(140-770), Flag-tagged, on 293T cells (human/mouse chimera); experiment: FACS, transfected 293T
T9 construct: also called Hu EC1
Text: as §1

[10] = molecular target: T10, Cyno Cadherin-19 (cynomolgus monkey (Macaca fascicularis), UniProt Q9H159 44-772 (human entry)); experiment: FACS, recombinant cyno CDH19
T10 construct: also called cyno CDH19; cynomologous CDH-19
T10 chain: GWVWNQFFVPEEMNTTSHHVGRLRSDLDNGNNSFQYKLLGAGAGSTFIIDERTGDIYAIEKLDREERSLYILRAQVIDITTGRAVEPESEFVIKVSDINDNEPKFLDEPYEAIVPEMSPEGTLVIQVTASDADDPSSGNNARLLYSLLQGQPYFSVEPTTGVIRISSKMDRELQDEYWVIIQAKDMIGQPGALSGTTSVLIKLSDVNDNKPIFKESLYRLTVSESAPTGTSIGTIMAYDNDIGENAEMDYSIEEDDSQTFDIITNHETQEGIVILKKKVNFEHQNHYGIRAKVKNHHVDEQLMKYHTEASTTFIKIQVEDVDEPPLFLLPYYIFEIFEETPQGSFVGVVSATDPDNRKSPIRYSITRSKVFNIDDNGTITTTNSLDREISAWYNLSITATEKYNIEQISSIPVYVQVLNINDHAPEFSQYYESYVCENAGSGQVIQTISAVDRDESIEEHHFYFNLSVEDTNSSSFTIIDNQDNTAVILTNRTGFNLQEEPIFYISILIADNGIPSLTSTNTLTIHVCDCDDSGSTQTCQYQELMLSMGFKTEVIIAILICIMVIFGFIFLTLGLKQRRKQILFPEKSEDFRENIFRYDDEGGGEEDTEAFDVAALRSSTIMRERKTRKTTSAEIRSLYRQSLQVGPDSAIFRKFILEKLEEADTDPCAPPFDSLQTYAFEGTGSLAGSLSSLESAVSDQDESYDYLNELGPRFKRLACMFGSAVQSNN

[11] = molecular target: T11, Human Cadherin-19 (human, UniProt Q9H159 44-772); experiment: FACS, endogenous CDH19 on tumor cells and 293/CDH-19 transfectants
T11 construct: Residues 1-43 are named as the native leader in the construct designations and are left out; also called human CDH19; huCDH19
Experimental: FACS binding assays were performed to evaluate the binding of the anti-Cadherin-19 receptor specific antibodies to endogenous Cadherin-19 receptor expressed on the CHL-1 tumor cell lines.
FACs assays were performed by incubating hybridoma supernatants with 10,000 to 25,000 cells in PBS/2% Fetal bovine serum/2 mM Calcium Chloride at 4° C. for one hour followed by two washes with PBS/2% Fetal bovine serum/2 mM Calcium Chloride. Cells were then treated with florochrome-labeled secondary antibodies at 4° C. followed by one wash. The cells were resuspended in 50 μl of PBS/2% FBS and antibody binding was analyzed using a FACSCalibur™ instrument.

- binding result [1]: binds
- binding result [2]: binds
- binding result [3]: binds
- binding result [4]: binds
- binding result [5]: binds
- binding result [6]: binds
- binding result [7]: binds
- binding result [8]: binds
- binding result [9]: binds
B1: hu anti-<huCDH19> 2G6 (1-477)(R17G,D61E,D72E,K94N) VH::huIgG1z / 2G6 (1-234)(C42S,D110E) VL::huLLC-C1 (Ab ID 14039) (antibody, V domains shown)
VH: QVQLVESGGGVVQPGGSLRLSCAASGFTFSSYGMHWVRQAPGKGLEWVAFIWYEGSNKYYAESVKDRFTISRDNSKNTLYLQMNSLRAEDTAVYYCARRAGIIGTIGYYYGMDVWGQGTTVTVSS
VL: SYELTQPPSVSVSPGQTASITCSGDRLGEKYTSWYQQRPGQSPLLVIYQDTKRPSGIPERFSGSNSGNTATLTISGTQAMDEADYYCQAWESSTVVFGGGTKLTVLG
notes: Engineered variant of 2G6

- binding result [10]: binds
- binding result [11]: binds
B2: hu anti-<huCDH19> 22G10.1 VH::huIgG1z / 22G10.1 VL::huKLC (Ab ID 13877) (antibody, V domains shown)
VH: EVQLLESGGGLVQPGGSLRLSCAASGFTFSSYAMNWVRQAPGKGLEWVSTISGGGANTYYADSVKGRFTISSDNSKSTLYLQMNSLRAADTAVYHCAKGGMGGYYYGMDVWGQGTTVTVSS
VL: EIVMTQSPVTLSLSLGERATLSCRASQSISSNLAWFQQKPGQAPRLLIYGAFTRATGIPARVSGSGSGTEFTLTISSLQSEDFAVYYCQQYNYWPLTFGGGTKVEIKR
